The labels stand for the following.
T1: EsCas13d, nuclease-dead (Eubacterium siraeum, UniProt B0MS50, R295A;H300A;R849A;H854A)
T1 sequence: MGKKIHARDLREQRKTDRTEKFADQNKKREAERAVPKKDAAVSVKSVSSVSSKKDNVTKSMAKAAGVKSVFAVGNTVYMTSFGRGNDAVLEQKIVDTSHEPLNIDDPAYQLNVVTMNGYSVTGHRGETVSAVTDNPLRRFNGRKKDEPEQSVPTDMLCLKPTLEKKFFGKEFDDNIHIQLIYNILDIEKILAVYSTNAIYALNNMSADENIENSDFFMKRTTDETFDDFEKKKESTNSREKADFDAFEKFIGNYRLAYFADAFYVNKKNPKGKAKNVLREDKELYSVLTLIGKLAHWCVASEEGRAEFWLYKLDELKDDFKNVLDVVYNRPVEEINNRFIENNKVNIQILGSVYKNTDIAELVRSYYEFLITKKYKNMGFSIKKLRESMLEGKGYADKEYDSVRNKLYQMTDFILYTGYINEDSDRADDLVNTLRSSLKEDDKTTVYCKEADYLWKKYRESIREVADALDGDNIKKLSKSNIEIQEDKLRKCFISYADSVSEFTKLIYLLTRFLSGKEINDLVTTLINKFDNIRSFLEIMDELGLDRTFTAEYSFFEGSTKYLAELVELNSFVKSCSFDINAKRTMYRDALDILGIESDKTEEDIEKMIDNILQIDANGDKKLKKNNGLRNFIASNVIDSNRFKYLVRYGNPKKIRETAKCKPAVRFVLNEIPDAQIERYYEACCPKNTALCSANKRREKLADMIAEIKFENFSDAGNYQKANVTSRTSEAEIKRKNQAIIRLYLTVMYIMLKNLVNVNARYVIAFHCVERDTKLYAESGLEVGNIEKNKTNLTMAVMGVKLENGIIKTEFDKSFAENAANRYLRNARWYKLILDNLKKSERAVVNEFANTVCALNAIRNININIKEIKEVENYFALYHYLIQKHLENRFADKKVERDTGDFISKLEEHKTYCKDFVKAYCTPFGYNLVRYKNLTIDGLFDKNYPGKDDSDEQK

B1: target 1 del13 (mixed)
RNA 1: CACCCGUGCAAAAAUGCAGGGGUCUAAAACUGAGCGGAUAACCUCUCUAUGG
RNA 2: GGGAAUGGAUCCACAUCUACGAAUUCGUACCAUAGAGAGUUAUCCGCUCACCGAGAUCGGAAGAGCACACGU
B2: target 1 complement block 3-5 (mixed)
RNA 1: B1 RNA 1
RNA 2: GGGAAUGGAUCCACAUCUACGAAUUCGUACCAUAGAGAGGUUAUCCCGACACCGAGAUCGGAAGAGCACACGU
B3: target 1 G17U,U19C (mixed)
RNA 1: B1 RNA 1
RNA 2: B2 RNA 2 with U33C, G35U, C47G, G48C, A49U
B4: target 1 insC 3' of 13,insA 3' of 2 (mixed)
RNA 1: B1 RNA 1
RNA 2: GGGAAUGGAUCCACAUCUACGAAUUCGUACCAUAGAGAGCGUUAUCCGCUCAACCGAGAUCGGAAGAGCACACGU
B5: target 1 A1C,U8C (mixed)
RNA 1: B1 RNA 1
RNA 2: B2 RNA 2 with U44C, C47G, G48C, A49U, A51C
B6: target 1 complement block 9-12 (mixed)
RNA 1: B1 RNA 1
RNA 2: B2 RNA 2 with G40C, U41A, U42A, A43U, C47G, G48C, A49U
B7: target 1 insC 3' of 19,insA 3' of 19 (mixed)
RNA 1: B1 RNA 1
RNA 2: GGGAAUGGAUCCACAUCUACGAAUUCGUACCAUCAAGAGAGGUUAUCCGCUCACCGAGAUCGGAAGAGCACACGU
B8: target 1 insC 3' of 13,insG 3' of 1 (mixed)
RNA 1: B1 RNA 1
RNA 2: B4 RNA 2 with A53G
B9: target 1 G5A,U8G (mixed)
RNA 1: B1 RNA 1
RNA 2: B2 RNA 2 with U44G, C47A, G48C, A49U
B10: target 1 A1G,U8C (mixed)
RNA 1: B1 RNA 1
RNA 2: B2 RNA 2 with U44C, C47G, G48C, A49U, A51G
B11: target 1 C2G,U11C (mixed)
RNA 1: B1 RNA 1
RNA 2: B2 RNA 2 with U41C, C47G, G48C, A49U, C50G
B12: target 1 insA 3' of 19,insG 3' of 8 (mixed)
RNA 1: B1 RNA 1
RNA 2: GGGAAUGGAUCCACAUCUACGAAUUCGUACCAUAAGAGAGGUUAUGCCGCUCACCGAGAUCGGAAGAGCACACGU
B13: target 1 C2A,C22A (mixed)
RNA 1: B1 RNA 1
RNA 2: B2 RNA 2 with C30A, C47G, G48C, A49U, C50A
B14: target 1 insA 3' of 3,insG 3' of 2 (mixed)
RNA 1: B1 RNA 1
RNA 2: GGGAAUGGAUCCACAUCUACGAAUUCGUACCAUAGAGAGGUUAUCCGCUACGACCGAGAUCGGAAGAGCACACGU
B15: target 1 insC 3' of 13,insC 3' of 1 (mixed)
RNA 1: B1 RNA 1
RNA 2: B4 RNA 2 with A53C
B16: target 1 insC 3' of 14,insG 3' of 7 (mixed)
RNA 1: B1 RNA 1
RNA 2: B12 RNA 2 with A35G, G36A, A37G, G38A, A39C, G46C, C47G
B17: target 1 del11,del22 (mixed)
RNA 1: B1 RNA 1
RNA 2: GGGAAUGGAUCCACAUCUACGAAUUCGUACAUAGAGAGGUAUCCGCUCACCGAGAUCGGAAGAGCACACGU
B18: target 1 C7A,A9G (mixed)
RNA 1: B1 RNA 1
RNA 2: B2 RNA 2 with A43G, C45A, C47G, G48C, A49U
B19: target 1 insU 3' of 12,insG 3' of 10 (mixed)
RNA 1: B1 RNA 1
RNA 2: B7 RNA 2 with C34A, A35G, A40G, G41U, G42U, U44G
B20: target 1 U8C (mixed)
RNA 1: B1 RNA 1
RNA 2: B2 RNA 2 with U44C, C47G, G48C, A49U
B21: target 1 C6A,G13A (mixed)
RNA 1: B1 RNA 1
RNA 2: B2 RNA 2 with G39A, C46A, C47G, G48C, A49U
B22: target 1 G12A,A16G (mixed)
RNA 1: B1 RNA 1
RNA 2: B2 RNA 2 with A36G, G40A, C47G, G48C, A49U
B23: target 1 insC 3' of 17,insC 3' of 13 (mixed)
RNA 1: B1 RNA 1
RNA 2: B12 RNA 2 with A35G, G36C, G41C, U42G, A44U, U45A, G46U
B24: target 1 G12C,C22U (mixed)
RNA 1: B1 RNA 1
RNA 2: B2 RNA 2 with C30U, G40C, C47G, G48C, A49U
B25: target 1 insU 3' of 20,insU 3' of 20 (mixed)
RNA 1: B1 RNA 1
RNA 2: B7 RNA 2 with C34U, A35U
B26: target 1 insA 3' of 19,insC 3' of 11 (mixed)
RNA 1: B1 RNA 1
RNA 2: B12 RNA 2 with U43C, A44U, U45A, G46U
B27: target 1 insU 3' of 7,insG 3' of 1 (mixed)
RNA 1: B1 RNA 1
RNA 2: B4 RNA 2 with C40G, G41U, U43A, A44U, U45C, C46U, A53G
B28: target 1 insG 3' of 10,insC 3' of 9 (mixed)
RNA 1: B1 RNA 1
RNA 2: B14 RNA 2 with A43G, U44A, C46U, G47C, U49G, A50C, C51U, G52C
B29: target 1 del3,del17 (mixed)
RNA 1: B1 RNA 1
RNA 2: GGGAAUGGAUCCACAUCUACGAAUUCGUACCAUAAGAGGUUAUCCGCCACCGAGAUCGGAAGAGCACACGU
B30: target 1 U19C,C22U (mixed)
RNA 1: B1 RNA 1
RNA 2: B2 RNA 2 with C30U, U33C, C47G, G48C, A49U
B31: target 1 U8G,A9G (mixed)
RNA 1: B1 RNA 1
RNA 2: B2 RNA 2 with A43G, U44G, C47G, G48C, A49U

Our source for the Kd values is publication PMC10786891, “Massively parallel profiling of RNA-targeting CRISPR-Cas13d”.

Broadly, the Kd is a measure of binding affinity in units of concentration.

Numbering of substitutions follows the chain as printed. In names and notes the source's numbering stands.

For this data set, the target named is T1, EsCas13d, nuclease-dead. The experiment in a line: crRNA (strand 1, pre-loaded); Mg2+; 40 mM Tris-HCl pH 7.5, 150 mM NaCl, 6 mM MgCl2, 1 mM DTT, 0.1% Tween-20, 0.2 mg/ml BSA; 25 C; 10 min per concentration, then washed. To be noted: tags: His6-TwinStrep-SUMO cleaved; N-terminal SNAP kept (SNAP-Surface 488); label: 3' end held by stalled T7 RNA polymerase.
For B1, the Kd is 8.6 ± 0.6 nM. The result for B2 reads 10.5 ± 1 nM; that for B3, 14.4 ± 0.8 nM; that for B4, 9 ± 0.5 nM. The result for B5 reads 8.1 ± 0.4 nM. With B6 the figure was 19.9 ± 2.7 nM; with B7, 31.3 ± 2.9 nM.

Regarding B8, the Kd stood at 9.17 ± 0.3 nM. Against the preceding molecule, the Kd is about 3.4-fold lower. The result for B9 reads 38 ± 2.4 nM. Regarding B10, binding was put at a Kd of 10.2 ± 0.9 nM. Compared with the last molecule, the Kd is about 3.7-fold lower.

Turning to B11, binding was put at a Kd of 7.4 ± 0.4 nM. This Kd and that of the molecule before are within 1.5-fold of each other. The result for B12 reads 32.7 ± 2.3 nM; that for B13, 17.8 ± 3.3 nM. The result for B14 reads 7.05 ± 0.31 nM; that for B15, 8.9 ± 0.6 nM; that for B16, 41 ± 8 nM. The result for B17 reads 78 ± 33 nM; that for B18, 11.5 ± 0.5 nM. B19 had a Kd of 13.1 ± 0.5 nM. With B20 the figure was 11.2 ± 0.4 nM. With B21 the figure was 6.6 ± 0.4 nM. The result for B22 reads 48 ± 5 nM; that for B23, 48 ± 7 nM.

B24 yielded a Kd of 23.5 ± 1.5 nM.

B25: binding was put at a Kd of 13.5 ± 1 nM. Compared with the last molecule, the Kd is about 1.7-fold lower. The result for B26 reads 100 ± 40 nM; that for B27, 13.8 ± 0.6 nM. The result for B28 reads 14.9 ± 0.6 nM; that for B29, 67 ± 17 nM; that for B30, 45 ± 6 nM. B31 displayed a Kd of 19.1 ± 1.3 nM.
